Measurements taken from patent US20240327530A1 (ICHNOS SCIENCES, published 2024).

What was measured:
[1] = target: T1, Human IL-1RAP, membrane-bound on human cells (HaCaT, dermal fibroblasts, neutrophils, PBMC, whole blood) (human, UniProt Q9NPH3 21-570); assay: flow cytometry on HaCaT cell line, nonlinear sigmoidal regression
T1 construct: Endogenous protein on cells
T1 sequence: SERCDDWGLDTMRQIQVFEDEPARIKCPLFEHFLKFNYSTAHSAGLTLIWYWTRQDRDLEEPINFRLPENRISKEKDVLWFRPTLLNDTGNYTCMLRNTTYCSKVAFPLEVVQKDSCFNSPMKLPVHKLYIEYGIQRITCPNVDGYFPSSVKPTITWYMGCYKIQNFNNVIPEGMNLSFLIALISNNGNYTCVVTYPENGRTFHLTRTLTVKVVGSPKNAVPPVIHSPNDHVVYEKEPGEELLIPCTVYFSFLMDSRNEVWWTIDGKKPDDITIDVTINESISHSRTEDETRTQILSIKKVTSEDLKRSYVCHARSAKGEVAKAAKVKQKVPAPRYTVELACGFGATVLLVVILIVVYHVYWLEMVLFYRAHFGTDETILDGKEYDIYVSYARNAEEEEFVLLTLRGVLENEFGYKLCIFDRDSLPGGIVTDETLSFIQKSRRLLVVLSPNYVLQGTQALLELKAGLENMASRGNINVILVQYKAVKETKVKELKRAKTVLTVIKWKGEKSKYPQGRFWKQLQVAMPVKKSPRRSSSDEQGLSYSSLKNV
Method: In brief, cells were harvested, counted, and plated at 50,000 cells/well in a 96-well round-bottom plate. The plate was centrifuged at 350 g for 3 minutes and the cells were resuspended in 50 μl of FACS® buffer (PBS (1×)+2.5% FCS+2 mM EDTA+0.05% NaN₃) containing various concentrations (ranging from 50 to 0.00003 μg/ml) of either anti-human IL-1RAP_candidate_1 or Isotype control_5 antibodies. Stained cells were incubated for 30 minutes at 4° C., washed twice with FACS® buffer at 350 g for 3 min and resuspended in […] of a monoclonal anti-human IgG PE-Cyanine7 secondary antibody (Biolegend, 409316) diluted 1/200 in FACS® buffer. Cells were then washed twice and resuspended in 200 μl of FACS® buffer containing SYTOX® Green dead cell stain (THERMO FISHER […]®, S34860) and samples were acquired on a CYTOFLEX® instruments (Beckman Coulter). The cells were gated based on size on FSC vs SSC and analyzed for PE-Cyanine7-geometric mean (geomean) fluorescence intensity using FLOWJO® software. Finally, relative geomean fluorescence intensity was calculated by subtracting fluorescence of anti-human IL-1RAP_candidate_1 per fluorescence of Isotype control_5. As depicted in FIGS. 6A, 6B, 6C, 6D, and 6E, anti-human IL-1RAP_candidate_1 antibody recognizes membrane-bound IL-1RAP expressed on HaCaT cell line and all primary cells. Multiple independent experiments were performed using multiple donors. […]

[2] = target: T2, Recombinant cynomolgus monkey IL-1RAP-ECD(S21-E359)-avi-his protein (cynomolgus monkey, UniProt P59822 21-359 (rhesus entry)); assay: SPR, IgG1 LALA captured by anti-human Fc, cyno IL-1RAP-avi-his as analyte, 1:1 fit
T2 construct: also called cyno IL-1RAP-ECD-Avi-His; recombinant cynomolgus monkey IL-1RAP-avi-his protein
T2 sequence: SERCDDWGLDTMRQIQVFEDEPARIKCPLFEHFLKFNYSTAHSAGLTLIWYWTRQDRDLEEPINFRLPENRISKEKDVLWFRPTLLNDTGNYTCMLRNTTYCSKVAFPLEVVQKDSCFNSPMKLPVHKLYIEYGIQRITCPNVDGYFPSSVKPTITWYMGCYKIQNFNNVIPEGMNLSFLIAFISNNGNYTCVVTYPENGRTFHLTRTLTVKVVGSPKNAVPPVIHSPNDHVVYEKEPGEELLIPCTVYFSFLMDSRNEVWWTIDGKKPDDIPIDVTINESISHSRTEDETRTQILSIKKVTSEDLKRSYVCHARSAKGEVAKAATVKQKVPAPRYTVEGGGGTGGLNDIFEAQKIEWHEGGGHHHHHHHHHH
Method: Surface plasmon resonance (SPR) was used to measure the binding affinities of the human IgG1 LALA molecules for human and cynomolgus monkey IL-1RAP. Affinities were measured on a BIACORE™ T200 instrument (BIACORE™, GE […]®) at 25° C. and analyzed with the BIACORE™ T200 Evaluation Software (v3.1). Measurements were performed on Series S CM5 sensor chips (BIACORE™ T200, BIACORE™, GE […]®, catalog no. BR100530) coupled with anti-human IgG Fc (BIACORE™, GE […]®, catalog no. BR100839) using a commercial amine coupling kit (BIACORE™, GE […]®, catalog no. BR100050). SPR measurements were performed with recombinant human IL-1RAP-avi-his protein produced in house (SEQ ID NO. 1) or recombinant cynomolgus monkey IL-1RAP-avi-his protein produced in house (SEQ ID NO. 2). The affinities to human and cynomolgus monkey IL-1RAP were assessed by immobilizing anti-IL-1RAP IgG1 LALA molecules and using IL-1RAP proteins as analyte. Around 150 RU of human IgG1 LALA were captured on fc2 of a Series S CM5 sensor chip coupled with anti-human IgG Fc. Recombinant human IL-1RAP-avi-his protein or recombinant cynomolgus monkey IL-1RAP-avi-his protein was injected in multi cycle kinetic at different concentrations ranging from 0.14 to 100 nM, in HBS-EP+ buffer (BIACORE™, GE […]®, catalog no. BR100669) at a flow rate of 30 μl/min for 3 min on fc1 and fc2 (fc1 being used as reference). Dissociation was monitored for 12 min. After each cycle, the surface was regenerated with 60 μl of regeneration solution provided with anti-human IgG Fc capture kit (BIACORE™, GE […]®, catalog no. BR100839). Experimental data were processed using the 1:1 Langmuir kinetic fitting model. Measurements included zero-concentration samples for referencing. Chi², U- and residual values were used to evaluate the quality of a fit between the experimental data and individual binding models.

Kd [1]: 0.75 nM | Kd [2]: 0.306 nM | koff [2]: 0.000212 s⁻¹ | kon [2]: 692000 M⁻¹ s⁻¹
B1: Anti-IL-1RAP-C8-RecC-ES-IgG1LALA (antibody, V domains shown)
VH: QVQLVQSGAEVKKPGSSVKVSCKASGSPAEPYAIQWVRQAPGQGLEWMGYIIPSLGGYDYAQKFQGRVTITADESTSTAYMELSSLRSEDTAVYYCARGQTLYESGRQFDIWGQGTLVTVSS
VL: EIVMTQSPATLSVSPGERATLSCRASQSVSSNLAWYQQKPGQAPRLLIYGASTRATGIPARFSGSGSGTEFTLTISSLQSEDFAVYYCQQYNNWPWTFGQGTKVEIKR
notes: also called ISB 880-C8-recC-ES
